The text below walks through data of patent US6525022B1, “Receptor specific atrial natriuretic peptides” (Genentech, Inc., priority 1993, dated 2003).

Bridges are numbered along the chain shown (N, C = ends). Where no end group is shown, it is not given here.

Series [1] addresses human NEP (hNEP), endopeptidase 24.11 (Homo sapiens, UniProt P08473). Kind of series: in vitro. The following applies: Half-Life (min.).
Experimental: The half-life of various ANF variants was measured according to the following procedure.
ANF Solution: An accurately weighed amount of ANF or variant thereof was diluted with HEPES buffer (5 ml of 1 M HEPES Buffer and 0.1 ml of Tween 20 diluted to a 100 ml volume with DI water) to make a 0.5 mg/ml solution.
hNEP/HEPES Solution: 7.5 μl of a 1 mg/ml solution of hNEP (see U.S. Pat. No. 4,960,700) is dissolved in 992.5 μl of HEPES buffer (as described above) and vortex mixed. The resulting mixture is stored in a silylated Eppendorf tube and periodically checked for activity against an ANF peptide standard.
Assay conditions: 150 μl of an ANF solution in the HEPES buffer is diluted with 820 μl HEPES buffer and vortex mixed (1 sec). Careful note of the time is taken as 30 μl of the hNEP/HEPES solution is added and the solution is vortex mixed for 1 sec. and analyzed by periodic removal of constant volume aliquots by the HPLC autosampler. A 2.5 cm×50 cm, C-18 reversed-phase column (15 micron, 300 Å]) was used and elution was achieved by using a shallow gradient of increasing acetonitrile. The elution conditions consisted of a 10% to 50% acetonitrile (containing 0.1% TFA) gradient at 0.5% min.^−1. The aqueous phase was 0.1% TFA in water. The peak area of the ANP peptide is recorded at these periodic intervals and a half-life is determined from these values.
Series [2] concerns the target T1, human natriuretic peptide receptor-A expressed in 293 cells (Homo sapiens, UniProt P16066).
T1 construct: expressed in transfected cells
T1 sequence (P16066 33-1061): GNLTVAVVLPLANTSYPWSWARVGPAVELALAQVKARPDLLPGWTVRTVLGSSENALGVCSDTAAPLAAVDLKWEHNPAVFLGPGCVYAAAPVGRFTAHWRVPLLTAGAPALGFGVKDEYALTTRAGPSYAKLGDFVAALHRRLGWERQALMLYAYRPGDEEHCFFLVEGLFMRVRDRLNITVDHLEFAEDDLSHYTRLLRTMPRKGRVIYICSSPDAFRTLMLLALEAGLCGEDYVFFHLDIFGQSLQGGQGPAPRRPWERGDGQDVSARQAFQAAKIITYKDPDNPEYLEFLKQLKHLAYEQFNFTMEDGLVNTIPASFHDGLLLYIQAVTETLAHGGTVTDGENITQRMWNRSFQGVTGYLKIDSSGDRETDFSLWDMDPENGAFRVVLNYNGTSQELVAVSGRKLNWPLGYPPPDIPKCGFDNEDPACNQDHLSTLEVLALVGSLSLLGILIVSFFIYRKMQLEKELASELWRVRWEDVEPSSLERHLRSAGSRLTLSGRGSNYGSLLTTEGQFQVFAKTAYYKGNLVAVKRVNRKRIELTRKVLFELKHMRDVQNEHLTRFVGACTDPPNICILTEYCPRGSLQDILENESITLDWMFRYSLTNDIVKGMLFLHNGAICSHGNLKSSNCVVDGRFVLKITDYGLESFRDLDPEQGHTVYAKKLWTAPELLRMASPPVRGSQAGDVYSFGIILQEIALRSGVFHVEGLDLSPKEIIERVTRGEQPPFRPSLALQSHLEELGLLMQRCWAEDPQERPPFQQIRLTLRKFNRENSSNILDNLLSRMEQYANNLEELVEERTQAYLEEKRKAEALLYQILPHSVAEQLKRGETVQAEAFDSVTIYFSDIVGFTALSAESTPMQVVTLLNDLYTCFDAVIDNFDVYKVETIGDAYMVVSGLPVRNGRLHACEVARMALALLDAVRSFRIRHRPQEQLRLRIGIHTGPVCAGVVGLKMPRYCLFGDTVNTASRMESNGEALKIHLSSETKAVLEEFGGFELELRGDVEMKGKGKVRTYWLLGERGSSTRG
Kind of series: cGMP production in 293 cells expressing hNPR-A. Type of series: cell-based. How it is done: Stable 293 cell lines were maintained in glycine free F-12/Dulbecco's minimal essential medium (50/50, v/v) with 10% dialyzed fetal calf serum, 10 mM Hepes, […] of G418 (Geneticin, GIBCO/BRL), pH 7.2, in a humidified incubator at 37° C. with 7% CO2, 93% air. Cells were passaged using 136.8 mM NaCL, 2.6 mM KCl, 7.9 mM Na2HPO4, 1.4 mM KH2PO4, pH 7.2 (PBS) with 0.5 mM EDTA. For concentration-response experiments log phase cultures of 293 cell lines were passaged to 12 well plates at a density of 2.5×10^5 cells/well. After 48 hours cultures were approximately 50% confluent, and were used for stimulation of cGMP production. Peptide treatments were carried out essentially as described by Lowe and Fendly (1992). Briefly, dried peptide aliquots were resuspended in 0.1% (v/v) acetic acid to a stock concentration of 50 μM, and diluted to 1 μM in F-12/Dulbecco's minimal essential medium (50/50, v/v) with 25 mM Hepes, 0.1% (w/v) bovine serum albumin, 0.1 mM isobutylmethylxanthine at pH 7.2 (stimulation medium). Five-fold serial dilutions were prepared in stimulation medium using polypropylene tubes, then prewarmed to 37° C. before use. Cell culture medium was aspirated prior to adding 0.5 ml of stimulation medium plus peptides to monolayer cultures for 10 minutes at 37° C. Reactions were stopped by addition of 0.5 ml of ice cold 12% trichloroacetic acid to give a final volume of 1 ml. Culture plates were frozen on dry ice and stored at −20° C. prior to assay. For cGMP measurements samples were thawed at room temperature, and processed as described by Koller et al., Science 252:120-123 (1991), for cGMP radioimmunoassay (Biomedical Technologies, Inc). All stimulations were performed in triplicate, and samples were measured in duplicate for cGMP by radioimmumoassay. Predicted peptide concentrations were corrected based on quantitative amino acid analysis of duplicate samples from the same set of peptide aliquots used for the stimulation experiments.
Data analysis. The competition binding curves and cGMP production dose responses were analyzed by the four-parameter logistic equation with the KaleidaGraph™ program (Synergy Software, PA) to obtain estimates of the IC50 or EC50 values. The non linear least-squares curve fitting program SCATPLOT was used to analyze the competition binding curves according to a one-site or two-site binding model for competitor. A two-site binding model is reported when the fit to the data was statistically better (p<0.05) than a one-site fit.

For a further series, the target named is T2, hNPR-C (Homo sapiens, UniProt P17342).
T2 sequence (P17342 27-541): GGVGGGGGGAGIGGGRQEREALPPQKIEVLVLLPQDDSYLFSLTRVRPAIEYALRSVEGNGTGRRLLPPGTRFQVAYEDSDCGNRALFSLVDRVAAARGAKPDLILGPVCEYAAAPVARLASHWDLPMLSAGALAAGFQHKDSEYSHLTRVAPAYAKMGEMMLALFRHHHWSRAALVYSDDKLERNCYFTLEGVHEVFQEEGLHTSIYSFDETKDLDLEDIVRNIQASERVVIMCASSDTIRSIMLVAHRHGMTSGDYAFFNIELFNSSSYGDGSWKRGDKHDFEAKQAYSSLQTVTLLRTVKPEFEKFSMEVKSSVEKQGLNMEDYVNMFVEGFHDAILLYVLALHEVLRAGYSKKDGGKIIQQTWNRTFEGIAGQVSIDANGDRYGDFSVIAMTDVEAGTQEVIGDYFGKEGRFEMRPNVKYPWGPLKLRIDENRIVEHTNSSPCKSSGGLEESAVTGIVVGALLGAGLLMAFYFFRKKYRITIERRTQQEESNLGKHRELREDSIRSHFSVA
In words: Competitive binding to membranes from cells expressing human NPR-C. Also on record: expressed in transfected cells. The settings on record: FIG. 19, in comparison to rat ANP. How it is done: Membrane preparation. Stable cell lines expressing human NPR-A (Lowe and Fendly, J. Biol. Chem. 267:21691-21697 (1992)) or human NPR-C (Cunningham et al., EMBO J 13, 2508-2515 (1994)) were removed from cell culture dishes with 0.5 mM EDTA in phosphate buffered saline (PBS), placed in ice cold PBS and centrifuged at 228 g for 10 min at 4° C. The cell pellets were resuspended in ice-cold homogenization buffer (50 mM HEPES, 1 mM EDTA, 1 mM DTT, 0.25 M sucrose, 0.7 mg/mL pepstatin A, 0.5 mg/mL leupeptin and 1 mM PMSF, pH 7.4). The cells were then homogenized using a Brinkman polytron at setting 5 for 30 sec. The homogenate was centrifuged at 400×g for 10 min at 4° C. The supernatant was collected and centrifuged at 100,000×g for 30 min at 4° C. […] Protein concentrations was determined using the Biorad protein assay with IgG as a standard.
Membrane competition binding assays. […] The plates were washed six times with PBS, then air dried prior to adding scintillant and counted in a Packard Topcount scintillation counter for 1 min/well. Binding was measured in duplicate for each concentration of competitor.
Data analysis. The competition binding curves and cGMP production dose responses were analyzed by the four-parameter logistic equation with the KaleidaGraph™ program (Synergy Software, PA) to obtain estimates of the IC50 or EC50 values. […]

The target of series [3] is human neutral endopeptidase 24.11 (human, UniProt P08473 2-750, limits assumed). In words: cell-based or functional assay.
Series [4] deals with T3, human natriuretic peptide receptor-A (human, UniProt P16066 33-1061).
T3 construct: whole, on cells; also called hNPR-A; human NPR-A
T3 sequence (looked up): T1 sequence (P16066 33-1061)
In words: competition binding, Table I; tracer and receptor format not given.

Series [5] concerns the target T4, human natriuretic peptide clearance receptor-C (human, UniProt P17342 27-541).
T4 construct: whole, on cells; also called hNPR-C; human NPR-C
T4 sequence (looked up): T2 sequence (P17342 27-541)
The series is described as above.

Series [6] concerns the target T5, human neutral endopeptidase 24.11 (human), P08473.
T5 chain: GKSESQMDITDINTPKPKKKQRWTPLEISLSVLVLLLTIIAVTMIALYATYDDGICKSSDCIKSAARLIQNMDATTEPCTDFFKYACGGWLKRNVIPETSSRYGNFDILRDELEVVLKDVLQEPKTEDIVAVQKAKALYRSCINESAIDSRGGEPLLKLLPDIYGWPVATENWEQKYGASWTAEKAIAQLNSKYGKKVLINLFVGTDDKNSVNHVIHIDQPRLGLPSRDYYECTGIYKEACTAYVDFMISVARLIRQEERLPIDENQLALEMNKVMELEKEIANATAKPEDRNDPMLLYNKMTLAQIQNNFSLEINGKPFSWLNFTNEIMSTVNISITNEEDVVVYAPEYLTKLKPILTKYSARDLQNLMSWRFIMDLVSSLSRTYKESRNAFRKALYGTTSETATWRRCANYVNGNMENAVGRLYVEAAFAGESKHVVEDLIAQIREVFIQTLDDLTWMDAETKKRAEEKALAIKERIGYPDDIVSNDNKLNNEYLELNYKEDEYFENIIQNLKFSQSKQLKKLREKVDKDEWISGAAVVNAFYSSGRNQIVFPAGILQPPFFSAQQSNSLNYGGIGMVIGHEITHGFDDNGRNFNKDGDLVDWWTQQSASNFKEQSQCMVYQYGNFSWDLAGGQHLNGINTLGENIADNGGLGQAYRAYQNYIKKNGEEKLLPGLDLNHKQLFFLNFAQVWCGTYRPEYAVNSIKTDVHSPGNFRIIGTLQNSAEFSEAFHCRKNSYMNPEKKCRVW
In words: cell-based or functional assay.

For series [7], the target named is T6, human natriuretic peptide clearance receptor-C (human), P17342.
T6 chain: T2 sequence (P17342 27-541)
In words: competition binding, Table I; tracer and receptor format not given.

For series [8], the target named is T7, human natriuretic peptide receptor-A (human), P16066.
T7 chain: T1 sequence (P16066 33-1061)
The description is as above.

human NEP (hNEP), endopeptidase 24.11, sequence (P08473 whole entry): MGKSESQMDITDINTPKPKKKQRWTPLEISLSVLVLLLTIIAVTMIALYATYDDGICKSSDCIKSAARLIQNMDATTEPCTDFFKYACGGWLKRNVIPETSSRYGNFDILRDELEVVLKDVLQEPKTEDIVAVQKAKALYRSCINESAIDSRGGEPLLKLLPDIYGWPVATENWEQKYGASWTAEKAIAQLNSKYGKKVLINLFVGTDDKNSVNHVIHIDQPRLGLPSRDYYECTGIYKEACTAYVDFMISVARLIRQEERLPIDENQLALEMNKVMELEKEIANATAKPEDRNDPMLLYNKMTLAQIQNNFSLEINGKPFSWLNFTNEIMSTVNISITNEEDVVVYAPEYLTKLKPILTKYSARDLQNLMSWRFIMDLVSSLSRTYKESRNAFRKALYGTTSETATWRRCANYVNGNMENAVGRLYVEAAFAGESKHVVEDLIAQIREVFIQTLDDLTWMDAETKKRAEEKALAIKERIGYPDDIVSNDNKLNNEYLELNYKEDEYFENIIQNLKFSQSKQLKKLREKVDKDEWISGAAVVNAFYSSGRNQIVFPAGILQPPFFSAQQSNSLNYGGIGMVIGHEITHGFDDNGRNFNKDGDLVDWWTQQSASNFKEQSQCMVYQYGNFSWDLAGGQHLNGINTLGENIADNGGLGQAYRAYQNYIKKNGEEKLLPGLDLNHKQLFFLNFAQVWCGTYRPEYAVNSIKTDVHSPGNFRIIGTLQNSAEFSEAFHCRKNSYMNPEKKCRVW

Consider `CC[C@H](C)[C@@H]1NC(=O)[C@H](CCCNC(=N)N)NC(=O)[C@H](CC(=O)O)NC(=O)[C@H]([C@@H](C)CC)NC(=O)[C@H](CO)NC(=O)CNC(=O)[C@H]([C@@H](C)O)NC(=O)[C@H](Cc2ccccc2)NC(=O)[C@@H](N(C)C(=O)[C@H](CO)NC(=O)[C@H](CO)NC(=O)[C@H](CCCNC(=N)N)NC(=O)[C@H](CCCNC(=N)N)NC(=O)[C@H](CC(C)C)NC(=O)[C@@H](N)CO)CSSC[C@@H](C(=O)N[C@@H](CC(N)=O)C(=O)N[C@@H](CO)C(=O)N[C@@H](Cc2ccccc2)C(=O)N[C@@H](CCCNC(=N)N)C(=O)N[C@@H](Cc2ccc(O)cc2)C(=O)O)NC(=O)CNC(=O)[C@H](CC(C)C)NC(=O)CNC(=O)[C@H](CO)NC(=O)[C@H](CCC(N)=O)NC(=O)[C@H](C)NC(=O)[C@H](CCCNC(=N)N)NC1=O` [ANF 82], for which the half-life (usually the time in which the quantity being followed falls by half) at 32 nM/ml in series [1] worked out at 6.08 h.
“Ser-Leu-Arg-Arg-Ser-Ser-Cys-Phe-Gly-Gly-Arg-Ile-Asp-Arg-Ile-Arg-Glu-Ala-Ser-Gly-Leu-Gly-Cys-Asn-Ser-Phe-Arg-Tyr (SEQ ID NO: 24), Cys^7-Cys^23 disulfide (SLRRSSCFGGRIDRIREASGLGCNSFRY; disulfide 7-23) [ANF 99]”: in series [2], the “Potency in cGMP production compared with rat ANP” value was “equipotent” and the “Stimulation of cGMP production (agonist efficacy)” value is given as “efficacious”. Besides, the “Binding to human NPR-C membranes, competition for 125I-rat ANP” value with hNPR-C is reported as “reduced affinity”.

B1: ANF 51 (peptide)
peptide: SLRRSSCFERPMDRIGAQSGLGCNSFRY
modifications: disulfide 7-23
notes: Cys7-Cys23 disulfide; also called hANF(1-28) G9E, G10R, R11P
As for B1, in [3], the “Half-life at 0.075 µg/ml NEP” value was determined as 32.1 h and the “Half-life at 0.15 µg/ml NEP” value is 4.48 h. Moreover, the IC50 (commonly the concentration that inhibits the measured activity by half) in [4] is 4.55 nM. In addition, the IC50 in series [5] is 32.2 nM.

B2: ANF 60 (peptide)
peptide: SLRRSSCFGKSMDRIGAQSGLGCNSFRY
modifications: not checked
In [6], B2 had a Half-Life of 5.07 h. The IC50 was found to be 5.98 nM in [7] and 0.112 nM in series [8].

B3: ANF 76 (peptide)
peptide: TAPRSLRRSSCFTGSIDRIRAQSGLGCNSFRY
modifications: not checked
For the molecule B3, the Half-Life in [6] is 23.5 h. The IC50 in [8] stood at 0.0089 nM.
